Test results from PMC3841738 (Genes & Development, 2013).

Molecular target: the molecule itself
Assay: SAXS

B1: NtrC1 ATPase domain (Aquifex aeolicus) (domain or fragment)
chain: LRKENELLRREKDLKEEEYVFESPKMKEILEKIKKISCAECPVLITGESGVGKEVVARLIHKLSDRSKEPFVALNVASIPRDIFEAELFGYEKGAFTGAVSSKEGFFELADGGTLFLDEIGELSLEAQAKLLRVIESGKFYRLGGRKEIEVNVRILAATNRNIKELVKEGKFREDLYYRLGVIEIEIPPLRERKEDIIPLANHFLKKFSRKYAKEVEGFTKSAQELLLSYPWYGNVRELKNVIERAVLFSEGKFIDRGELSCLVNSK
stoichiometry N: 7
